# *1 amine or outer side, *2 acyl side, *3 side chain or, on linkers, in order; H or OH if unused. Where a SMILES comes first, the peptide text is derived from it. [ ]: non-standard residue; d: D form. The star is where a group is joined. dPhe(4-125I) = para-(125I)iodo-D-phenylalanine, O=C([C@@H](Cc1ccc([125I])cc1)N[*:1])[*:2]; dPhe(4-Cl) = N[C@H](Cc1ccc(Cl)cc1)C(=O)O; dPhe(4-I) = N[C@H](Cc1ccc(I)cc1)C(=O)O; 2Nal = N[C@@H](Cc1ccc2ccccc2c1)C(=O)O; d2Nal = N[C@H](Cc1ccc2ccccc2c1)C(=O)O; Fmoc = O=C(OCC1c2ccccc2-c2ccccc21)*; Cha = N[C@@H](CC1CCCCC1)C(=O)O; d2Thi = N[C@H](Cc1cccs1)C(=O)O; Nle = CCCC[C@H](N)C(=O)O
# What was measured:
# [1] = biological target: MC receptors in rat brain homogenate; test: Melanocortin receptor binding assay using ^125I-HP 467 in rat brain homogenate; conditions: individual tetrapeptides
# Method: For assays, fine chemicals were obtained from Sigma (St. Louis Mo.) and GF/B plates and MICROSCINT were obtained from Packard Instrument Co. (Meriden Conn.). Frozen rat brains were thawed and the thalamus and hypothalamus were dissected out and weighed. The tissue was homogenized in 40 ml buffer A (50 mM Tris-HCl, 2 mM EDTA, 10 mM CaCl2, 100 μM PMSF, pH 7.4) in a Dounce homogenizer. The homogenate was centrifuged at 39,000×g for 10 min, resuspended in 20 ml fresh buffer and recentrifuged. The pellet was resuspended in 80 ml buffer B (50 mM Tris-HCl, 2 mM EDTA, 10 mM CaCl2, 5 mM MgCl2, 100 μM PMSF, pH 7.4). ^125I-HP 467 was custom labeled by Amersham to a specific activity of 2000 Ci/mmol (Amersham; Arlington Heights IL). Fifty pM ^125I-HP 467 and 0.2 mg protein/ml membrane suspension containing 2 mg/ml BSA was added to each assay tube.
# Competition assays were performed using α-MSH, γ1-MSH, γ2-MSH, γ3-MSH and ACTH (4-10) also containing 1 mM phenanthroline, 200 μg/ml bacitracin, and 5 μg/ml leupeptin. Tubes were incubated for 2 hours at 37° C. The assay was terminated by filtration through GF/B filters previously soaked in 5 mg/ml BSA Tris-HCl buffer. The samples were washed with Tris-HCl, dried and counted in Packard Minaxl gamma counter (Packard Instrument Co.).
# IC50 values were determined in brain tissue as described in Example III.
# [2] = biological target: T1, MC receptor in mouse B16 cells (Mus musculus, UniProt Q01727); test: MC receptor binding activity in mouse B16 cells; conditions: individual tetrapeptides
# T1 construct: endogenous in cells; host or cells: mouse B16 cells
# T1 sequence (Q01727 whole entry): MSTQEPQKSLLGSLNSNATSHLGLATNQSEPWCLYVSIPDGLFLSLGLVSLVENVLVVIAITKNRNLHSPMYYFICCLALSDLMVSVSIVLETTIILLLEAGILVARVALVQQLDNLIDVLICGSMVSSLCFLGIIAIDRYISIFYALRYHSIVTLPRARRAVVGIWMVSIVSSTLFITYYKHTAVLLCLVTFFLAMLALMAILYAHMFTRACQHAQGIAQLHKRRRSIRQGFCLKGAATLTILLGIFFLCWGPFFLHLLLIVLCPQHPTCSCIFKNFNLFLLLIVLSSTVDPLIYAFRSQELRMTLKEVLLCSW
# Text: The 36 peptides were screened for MC receptor binding activity in rat brain and in mouse B16 cells.
# hMC1 = biological target: T2, hMC1 (Homo sapiens, UniProt Q01726); test: Displacement of ^125I-HP 467 in transfected mouse L cells expressing hMC1; conditions: receptor expressed in mouse L cells, read-out: Binding IC50, MC-1
# T2 construct: expressed in transfected cells; host or cells: mouse L cells
# T2 sequence (Q01726 whole entry): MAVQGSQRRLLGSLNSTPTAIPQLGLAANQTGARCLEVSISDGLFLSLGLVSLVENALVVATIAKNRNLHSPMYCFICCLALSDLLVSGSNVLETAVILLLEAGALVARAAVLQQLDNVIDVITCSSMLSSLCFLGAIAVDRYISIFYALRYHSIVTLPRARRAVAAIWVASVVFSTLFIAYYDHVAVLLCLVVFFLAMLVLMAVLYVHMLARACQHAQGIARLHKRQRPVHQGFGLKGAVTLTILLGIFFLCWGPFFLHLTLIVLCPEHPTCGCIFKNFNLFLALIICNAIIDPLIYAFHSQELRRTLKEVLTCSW
# hMC5 = biological target: T3, hMC5 (Homo sapiens, UniProt P33032); test: Displacement of ^125I-HP 467 in HEK 293 cells expressing hMC5; conditions: receptor expressed in HEK 293 cells, read-out: Binding IC50, MC-5
# T3 construct: expressed in transfected cells; host or cells: HEK 293 cells
# T3 sequence (P33032 whole entry): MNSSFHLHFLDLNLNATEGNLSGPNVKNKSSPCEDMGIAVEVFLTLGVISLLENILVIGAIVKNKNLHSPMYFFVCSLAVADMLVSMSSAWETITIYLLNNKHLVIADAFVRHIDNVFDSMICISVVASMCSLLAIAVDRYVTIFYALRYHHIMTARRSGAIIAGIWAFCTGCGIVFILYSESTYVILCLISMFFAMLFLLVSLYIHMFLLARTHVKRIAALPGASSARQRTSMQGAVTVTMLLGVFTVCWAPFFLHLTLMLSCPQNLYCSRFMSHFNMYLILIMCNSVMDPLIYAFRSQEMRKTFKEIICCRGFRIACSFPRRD
# Sprague-Dawley rats = test: HP 467 antagonism of HP 228 induced hypophagia (food intake); assay type: in vivo; conditions: IP BID, HP 228 1.5 mg/kg, HP 467 3.0 mg/kg
# Method: Male Sprague-Dawley rats weighing 250 to 300 grams were divided into three treatment groups of 8 rats each. The control group received IP saline injections BID (1 ml/kg) at 8 AM and 4 PM. […] After each injection, each rat immediately received a second injection. […] All injections started at 4 PM on day 0 and ended on the afternoon of day 2. Food consumption and body weight measurements were taken daily, each morning.
# hMC3 = biological target: T4, hMC3 (Homo sapiens, UniProt P41968); test: Displacement of ^125I-HP 467 in transfected mouse L cells expressing hMC3; conditions: receptor expressed in mouse L cells, read-out: Binding IC50, MC-3
# T4 construct: expressed in transfected cells; host or cells: mouse L cells
# T4 sequence (P41968 whole entry): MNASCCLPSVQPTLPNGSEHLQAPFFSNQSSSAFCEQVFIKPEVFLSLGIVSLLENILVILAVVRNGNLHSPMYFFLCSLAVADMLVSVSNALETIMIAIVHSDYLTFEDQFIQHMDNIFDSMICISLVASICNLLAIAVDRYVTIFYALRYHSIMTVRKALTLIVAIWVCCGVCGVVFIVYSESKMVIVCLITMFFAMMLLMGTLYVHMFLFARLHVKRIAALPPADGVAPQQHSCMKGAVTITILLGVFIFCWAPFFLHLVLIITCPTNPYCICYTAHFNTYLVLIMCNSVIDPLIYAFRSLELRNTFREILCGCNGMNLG
# hMC4 = biological target: T5, hMC4 (Homo sapiens, UniProt P32245); test: Displacement of ^125I-HP 467 in transfected mouse L cells expressing hMC4; conditions: receptor expressed in mouse L cells, read-out: Binding IC50, MC-4
# T5 construct: expressed in transfected cells; host or cells: mouse L cells
# T5 sequence (P32245 whole entry): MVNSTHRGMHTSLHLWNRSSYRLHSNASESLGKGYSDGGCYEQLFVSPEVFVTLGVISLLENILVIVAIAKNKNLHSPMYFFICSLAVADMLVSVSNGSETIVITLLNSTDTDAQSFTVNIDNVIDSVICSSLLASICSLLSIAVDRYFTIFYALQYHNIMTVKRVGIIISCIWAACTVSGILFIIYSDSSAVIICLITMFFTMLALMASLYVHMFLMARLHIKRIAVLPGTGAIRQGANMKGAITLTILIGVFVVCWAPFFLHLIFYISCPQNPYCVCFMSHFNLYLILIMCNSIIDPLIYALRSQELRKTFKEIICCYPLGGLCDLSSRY
# [3] = biological target: MC receptors in rat brain homogenate; test: Melanocortin receptor binding assay using ^125I-HP 467 in rat brain homogenate; conditions: saturation binding to rat brain membranes
# [4] = biological target: MC receptors in rat brain homogenate (rat); test: competition binding, rat brain membranes
# [5] = biological target: MC receptors of mouse B16 cells (mouse); test: competition binding, mouse B16 cells; tracer not stated
# MC receptors of mouse B16 cells (mouse), sequence (Q01727 whole entry): as the sequence (Q01727 whole entry) above
# [6] = biological target: human melanocortin receptor 3 (human) (UniProt P41968); test: saturation radioligand binding; mouse L cells expressing MC3
# human melanocortin receptor 3 (human), sequence (P41968 whole entry): as the sequence (P41968 whole entry) above
# [7] = biological target: human melanocortin receptor 3 (human) (UniProt P41968); test: saturation radioligand binding; HEK 293 cells expressing MC3
# [8] = biological target: human melanocortin receptor 1 (human) (UniProt Q01726); test: saturation radioligand binding; mouse L cells expressing MC1
# human melanocortin receptor 1 (human), sequence (Q01726 whole entry): as the sequence (Q01726 whole entry) above
# [9] = biological target: human melanocortin receptor 1 (human) (UniProt Q01726); test: saturation radioligand binding; HEK 293 cells expressing MC1
# [10] = biological target: human melanocortin receptor 4 (human) (UniProt P32245); test: saturation radioligand binding; mouse L cells expressing MC4
# human melanocortin receptor 4 (human), sequence (P32245 whole entry): as the sequence (P32245 whole entry) above
# [11] = biological target: MC receptors in rat brain homogenate (rat); test: saturation radioligand binding, rat brain membranes
molecule,measurement,setting,value
CC(=O)N[C@@H](Cc1c[nH]cn1)C(=O)N[C@H](Cc1ccc(Cl)cc1)C(=O)N[C@@H](CCCNC(=N)N)C(=O)N[C@@H](Cc1ccc2ccccc2c1)C(N)=O [AC—H-(pcl-f)-R-(Nal)-NH2] (Ac-H[dPhe(4-Cl)]R[2Nal]-NH2),IC50,[1],18 nM
CC(=O)NCCCC[C@H](NC(=O)OCC1c2ccccc2-c2ccccc21)C(=O)N[C@H](Cc1cccs1)C(=O)N[C@@H](CCCNC(=N)N)C(=O)N[C@@H](Cc1ccc2ccccc2c1)C(N)=O [Ac-(αFmLys)-(D-Thi)-R-(Nal)-NH2] (Fmoc-K(Ac)[d2Thi]R[2Nal]-NH2),IC50,[1],469 nM
CC(=O)NCCCC[C@H](NC(=O)OCC1c2ccccc2-c2ccccc21)C(=O)N[C@H](Cc1ccc(Cl)cc1)C(=O)N[C@@H](CCCNC(=N)N)C(=O)N[C@@H](Cc1ccc2ccccc2c1)C(N)=O [Ac-(αFmLys)-(pCl-f)-R-(Nal)-NH2] (Fmoc-K(Ac)[dPhe(4-Cl)]R[2Nal]-NH2),IC50,[1],427 nM
CC(=O)NCCCC[C@H](NC(=O)OCC1c2ccccc2-c2ccccc21)C(=O)N[C@@H](CCCNC(=N)N)C(=O)N[C@@H](CC1CCCCC1)C(=O)N[C@@H](Cc1ccc2ccccc2c1)C(N)=O [Ac-(αFmLys)-R-(L-Cha)-(Nal)-NH2] (Fmoc-K(Ac)R[Cha][2Nal]-NH2),IC50,[1],> 4000 nM
CC(=O)NCCCC[C@H](NC(=O)OCC1c2ccccc2-c2ccccc21)C(=O)N[C@@H](CCCNC(=N)N)C(=O)N[C@@H](CC1CCCCC1)C(=O)N[C@H](CCCNC(=N)N)C(N)=O [Ac-(αFmLys)-R-(L-Cha)-r-NH2] (Fmoc-K(Ac)R[Cha][dR]-NH2),IC50,[1],427 nM
CC(=O)NCCCC[C@H](NC(=O)OCC1c2ccccc2-c2ccccc21)C(=O)N[C@@H](CCCNC(=N)N)C(=O)N[C@@H](CCCNC(=N)N)C(=O)N[C@@H](Cc1ccc2ccccc2c1)C(N)=O [Ac-(αFmLys)-R-R-(Nal)-NH2] (Fmoc-K(Ac)RR[2Nal]-NH2),IC50,[1],2000 nM
"CC(=O)N[C@@H](Cc1c[nH]cn1)C(=O)N[C@H](Cc1ccc(Cl)cc1)C(=O)N[C@@H](CCCNC(=N)N)C(=O)N[C@H](Cc1ccc2ccccc2c1)C(N)=O [Ac—H-(pCl-f)-R-(D-Nal)-NH2, Ac-His-(pCl-f)-Arg-(D-Nal)-NH2] (Ac-H[dPhe(4-Cl)]R[d2Nal]-NH2)",IC50,[1],51 nM
same,IC50,[1]; listed as Ac-His-(pCl-f)-Arg-(D-Nal)-NH2,18 nM
CC(=O)N[C@@H](Cc1c[nH]cn1)C(=O)N[C@H](Cc1ccc(Cl)cc1)C(=O)N[C@@H](CC1CCCCC1)C(=O)N[C@H](CCCNC(=N)N)C(N)=O [Ac—H-(pcl-f)-(L-Cha)-r-NH2] (Ac-H[dPhe(4-Cl)][Cha][dR]-NH2),IC50,[1],> 5000 nM
same,IC50,[2],156 nM
"CCCC[C@H](NC(C)=O)C(=O)N[C@@H](CCC(N)=O)C(=O)N[C@@H](Cc1c[nH]cn1)C(=O)N[C@H](Cc1ccccc1)C(=O)N[C@@H](CCCNC(=N)N)C(=O)N[C@H](Cc1c[nH]c2ccccc12)C(=O)NCC(N)=O [HP 228, Ac-(Nle)QHfRwG-NH2, reference compound]",IC50,hMC1,1.49 nM
same,IC50,hMC5,194 nM
same,"Hypophagia (food intake) Change, Day 1",Sprague-Dawley rats; Day 1,−6.8%
same,"Hypophagia (food intake) Change, Day 2",Sprague-Dawley rats; Day 2,−5.3%
"CCCC[C@H](NC(C)=O)C(=O)N[C@@H](CCC(N)=O)C(=O)N[C@@H](Cc1c[nH]cn1)C(=O)N[C@H](Cc1ccc(I)cc1)C(=O)N[C@@H](CCCNC(=N)N)C(=O)N[C@H](Cc1c[nH]c2ccccc12)C(=O)NCC(N)=O [HP 467, Ac-Nle-Gln-His-(p(I)-D-Phe)-Arg-(D-Trp)-Gly-NH2] (Ac-[Nle]QH[dPhe(4-I)]R[dW]G-NH2)",IC50,hMC1,0.23 nM
same,IC50,hMC3,0.48 nM
same,IC50,hMC4,0.31 nM
same,IC50,hMC5,0.46 nM
"CCCC[C@H](NC(C)=O)C(=O)N[C@@H](CCC(N)=O)C(=O)N[C@@H](Cc1c[nH]cn1)C(=O)N[C@H](Cc1ccc(I)cc1)C(=O)N[C@@H](CCCNC(=N)N)C(=O)N[C@H](Cc1c[nH]c2ccccc12)C(=O)NCC(N)=O [^125I-HP 467, Ac-Nle-Gln-His-(p(^125I)-D-Phe)-Arg-(D-Trp)-Gly-NH2] (Ac-[Nle]QH[dPhe(4-I)]R[dW]G-NH2)",Kd,[3],0.4 nM
AC-H-(pcl-f)-R-(Nal)-NH2 (peptide),IC50,[4],18 nM
same,IC50,[5],68 nM
Ac-(αFmLys)-(D-Thi)-R-(Nal)-NH2 (peptide),IC50,[4],469 nM
Ac-(αFmLys)-(pCl-f)-R-(Nal)-NH2 (peptide),IC50,[4],427 nM
same,IC50,[5],41 nM
Ac-(αFmLys)-R-(L-Cha)-(Nal)-NH2 (peptide),IC50,[5],1140 nM
Ac-(αFmLys)-R-(L-Cha)-r-NH2 (peptide),IC50,[4],427 nM
same,IC50,[5],185 nM
Ac-(αFmLys)-R-R-(Nal)-NH2 (peptide),IC50,[4],2000 nM
same,IC50,[5],1420 nM
Ac-H-(pCl-f)-R-(D-Nal)-NH2 (SEQ ID NO:18) (peptide),IC50,[4],51 nM
same,IC50,[5],19 nM
Ac-H-(pcl-f)-(L-Cha)-r-NH2 (peptide),IC50,[5],156 nM
"^125I-HP 467, Ac-Nle-Gln-His-(p(^125I)-D-Phe)-Arg-(D-Trp)-Gly-NH2",Kd,[6],0.04 nM
same,Kd,[7],0.29 nM
same,Kd,[8],0.092 nM
same,Kd,[9],0.132 nM
same,Kd,[10],0.082 nM
"Ac-[Nle]QH[dPhe(4-125I)]R[dW]G-NH2 [^125I-HP 467, Ac-Nle-Gln-His-(p(^125I)-D-Phe)-Arg-(D-Trp)-Gly-NH2]",Bmax (fmoles/mg protein),[11],21
same,Kd,[11],0.4 nM

# Reference: patent US6350430B1, “Melanocortin receptor ligands and methods of using same” (Lion Bioscience Science AG, priority 1997, dated 2002)
